B1: VapC26 toxin with N-terminal (His)6 tag (native, co-expressed with VapB26) (natural protein)
chain: MIIDTSALLAYFDAAEPDHAAVSECIDSSADALVVSPYVVAELDYLVATRVGVDAELAVLRELAGGAWELANCGAAEIEQAARIVTKYQDQRIGIADAANVVLADRYRTRTILTLDRRHFSALRPIGGGRFTVIP
B2: VapB26 antitoxin (untagged, native, co-expressed with VapC26) (natural protein)
chain: MDKTTVYLPDELKAAVKRAARQRGVSEAQVIRESIRAAVGGAKPPPRGGLYAGSEPIARRVDELLAGFGER

How the values were obtained:
VapB26 Y51E = VapB26 Y51E (Mycobacterium tuberculosis, UniProt O53778 1-71, Y51E); experiment: co-purification on a Ni2+ affinity column
[1] = target: B1; experiment: crystal structure

B1
binding result (VapB26 Y51E): binds

B2
binding result [1]: binds
